Test results from patent US20210371538A1 (Genmab, published 2021).

Molecular target: T1, CD20 (human, UniProt P11836 1-297, limits assumed)
T1 construct: The KD sentence says only 'CD20'; also called human CD20; B-cell antigen CD20
T1 sequence (looked up): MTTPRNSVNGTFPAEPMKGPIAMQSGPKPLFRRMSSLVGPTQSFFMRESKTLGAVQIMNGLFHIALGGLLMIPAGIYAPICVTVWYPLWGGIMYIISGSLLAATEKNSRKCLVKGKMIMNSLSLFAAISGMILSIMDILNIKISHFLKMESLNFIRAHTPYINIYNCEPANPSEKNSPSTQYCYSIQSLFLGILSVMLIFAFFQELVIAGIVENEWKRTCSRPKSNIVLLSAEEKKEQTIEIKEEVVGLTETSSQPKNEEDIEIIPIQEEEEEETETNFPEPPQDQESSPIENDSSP
Test: in vitro measurement, method not stated; used as a PK/PD model parameter

B1: DuoBody-CD3×CD20 (bispecific antibody, human IgG1, kappa, lambda)
heavy 1: not shown
light 1: not shown
heavy 2: EVQLVESGGGLVQPDRSLRLSCAASGFTFHDYAMHWVRQAPGKGLEWVSTISWNSGTIGYADSVKGRFTISRDNAKNSLYLQMNSLRAEDTALYYCAKDIQYGNYYYGMDVWGQGTTVTVSSASTKGPSVFPLAPSSKSTSGGTAALGCLVKDYFPEPVTVSWNSGALTSGVHTFPAVLQSSGLYSLSSVVTVPSSSLGTQTYICNVNHKPSNTKVDKRVEPKSCDKTHTCPPCPAPEFEGGPSVFLFPPKPKDTLMISRTPEVTCVVVAVSHEDPEVKFNWYVDGVEVHNAKTKPREEQYNSTYRVVSVLTVLHQDWLNGKEYKCKVSNKALPAPIEKTISKAKGQPREPQVYTLPPSREEMTKNQVSLTCLVKGFYPSDIAVEWESNGQPENNYKTTPPVLDSDGSFFLYSRLTVDKSRWQQGNVFSCSVMHEALHNHYTQKSLSLSPG
light 2: not shown
notes: Full-length IgG1 bispecific with an inert Fc (L234F, L235E, D265A), made by controlled Fab-arm exchange of IgG1-CD3-FEAL and IgG1-CD20-FEAR; One heavy/light pair for each arm; also called epcoritamab; GEN3013
Q: For B1, which Kd is on record?
A: 5.4 nM
